Experimental findings from patent US20230212319A1, “NOVEL ANTIGEN BINDING DOMAINS AND SYNTHETIC ANTIGEN RECEPTORS INCORPORATING THE SAME” (University of Southern California, priority 2020, published 2023) are described below.

Holding throughout (assay type): cell-based
For one experiment, the system named is RAJI-CD19-KO cells. The experiment can be described thus: JNG assay, co-culture with RAJI-CD19-KO cells. The conditions noted are these: co-culture with Raji-CD19-KO. In outline: (§1)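 Jurkat-NFAT-GFP (JNG) cells stably expressing SAR constructs via lentiviral transduction and puromycin/blasticidin selection were cocultured with target cells at E:T ~1:2 for ~4–18 h. NFAT-driven GFP was measured by FACS versus parental JNG cells; scores +/- to 5+ denote ~5–50% GFP-positive cells.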

Another experiment relates to RS;411. Nature of the experiment: JNG assay, co-culture with RS;411 cells. The conditions noted are these: co-culture with RS411. The procedure, abridged: as §1
Another experiment has as its system L363 cells. Nature of the experiment: JNG assay, co-culture with L363 cells. The conditions noted are these: co-culture with L363. In outline: as §1
In the next experiment the test system is RAJI cells. The experiment can be described thus: JNG assay, co-culture with RAJI cells. The conditions noted are these: JNG cells expressing construct, co-culture with Raji. In outline: as §1
A further experiment concerns Nalm6 cells. The experiment can be described thus: JNG assay, co-culture with Nalm6 cells. The conditions noted are these: co-culture with Nalm6. The procedure, abridged: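 GFP expression induced through the NFAT pathway was monitored by FACS once SAR-bearing Jurkat reporters had been cultured with target cells at an approximate 1:2 ratio for 4 to 18 hours; parental reporter cells served as the baseline.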

In another experiment the test system is LNCaP cells. The experiment can be described thus: JNG assay, co-culture with LNCaP cells. The conditions noted are these: for NFAT-GFP ASSAY: LNCaP: co-culture with LNCaP. As for the experimental part: Cellular supernatant is collected and assayed for the induction of cytokines (e.g., IL2).
JNG (Jurkat cells expressing EGFP under an NFAT promoter) were infected with lentiviral vectors encoding different single chain and multi-chain SARs by spinfection in the presence of 8 µg/ml of Polybrene® (Sigma, Catalog no. H9268). The Jurkat-NFAT-GFP cells are engineered in such a way that the IL-2 promoter, which carries NFAT binding sites, is cloned upstream of the GFP gene. These cells have been used to study signaling via TCR and CAR. The different SARs were stably expressed in Jurkat NFAT-GFP cells by lentiviral mediated gene transfer, followed by selection with puromycin or blasticidin. No drug selection was used in case the construct lacked an antibiotic resistance gene. The SAR-expressing Jurkat-NFAT-GFP cells were cocultured with the target cells at E:T ratio of approximately 1:2 for approximately 4 hours to 18 hours. When the interaction between SIRs and their target antigen results in activation of the NFAT pathway, GFP expression is induced. […] GFP expression was monitored by FACS analysis. The Jurkat-NFAT-GFP (parental) cells were used as control. The structure of different constructs can be determined based on their names. For example, the construct CD8SP-CD19-hu-mROO5-1-vL-[hTCRa-C SDVP]-F-F2A-Spe-IgHSP-Apa-CD20-vHH-2HCD25-G4S-CDl9-hu-mROO5-1-vH-Mlu-[hTCRb-KACIAH]-F-P2A-PAC has the following modules from 5′ to 3′ direction: a CD8 signal peptide (CD8SP), the CD19 targeting hu-mROO5-1 vL fragment (CD19-hu-mROO5-1), Xho1 cloning site, human TCRa constant chain containing CSDVP mutations (hTCRa-CSDVP), Furine cleavage site (F), F2A ribosomal skip sequence (F2A), SpeI site, human IgH signal peptide (IgHSP), Apa I restriction enzyme site, camelid CD20-2HCD25-VHH module targeting CD20, BamHI restriction enzyme site, Glycinex4-serine linker (G4S), BstI restriction enzyme site, CD19-hu-mROO5-1-vH fragment targeting CD19, Mlu I restriction enzyme site, human TCRb constant chain containing KACIAH mutations ([hTCRb-KACIAH]), Furine cleavage site (F), P2A ribosomal skip sequence and Puromycin resistance gene (PAC). The sequence of the other constructs in the table can be similarly determined from their names and by referring to the different Tables of this disclosure that provide the names and SEQ ID NO of the different modules. Alternatively, the composition and modular architecture of the different SAR constructs can be determined from their sequences by bioinformatics tools, including using nucleic acid and amino acids homology searches. A SAR is considered positive in the assay in case the SAR expressing Jurkat-NFAT-GFP cells show greater % GFP positive cells when cultured with the target cell line as compared to parental Jurkat-NFAT-GFP cells. The signs +/-, +, 2+ etc. after the name of the cell lines indicate the relative degree of positivity on the Jurkat-NFAT-GFP assay as measured by the % GFP positive cells after culture of the SAR expressing Jurkat-NFAT-GFP cells with that cell line above the % GFP cells observed in parental Jurkat NFAT-GFP cells serving as controls. In general, the number +/-, +, 2+, 3+, 4+, 5+ refer to approximately 5%, 10%, 20%, 30%, 40% and 50% GFP positive cells. The % of GFP induction in the above assay is dependent not only the relative strength of the SAR but also, among other factors, on the relative level of expression of the SAR in the JNG cells and the relative level of expression of the target antigen in the target cell line. To control for the difference in gene transduction efficiency of the different SAR constructs, the experiment was conducted with JNG cells transduced with SAR constructs co-expressing a drug resistance gene (e.g., puromycin or PAC) followed by drug selection to generate a stable population of SAR-expressing cells. […]

B1: 22140 (protein)
chain: MALPVTALLLPLALLLHAARPACEVQLLESGGGLIQPGGSLRLSCAASGFTFSSHAMTWVRQAPGKGLEWVSAISGSGDYTHYADSVKGRFTISRDNSKNTVYLQMNSLRAEDSAVYYCAKDEDGGSLLGHRGQGTLVTVSSGTGGGGSGGGGSGGGGSEFDIQMTQSPSSLSASVGDRVTITCKASDHINNWLAWYQQKPGQAPKLLIYGATTLETGVPSRFSGSGSGTDYTLTISSLQPEDFATYYCQQSWNTPWTFGQGTKLEIKRLEGQPKANPTVTLFPPSSEELQANKATLVCLISDFYPGAVTVAWKADGSPVKAGVETTKPSKQSNNKYAASSYLSLTPEQWKSHRSYSCQVTHEGSTVEKTVAPTECSGRADCGFTSESYQQGVLSATILYEILLGKATLYAVLVSALVLMAMVKRKDSRGRAKRSGSGATNFSLLKQAGDVEENPGPTSATMDWIWRILFLVGAATGAHSGPQVQLQESGGGLAQAGGSLRLSCAASGRTFSMGWFRQAPGKEREFVAAITYSGGSPYYASSVRGRFTISRDNAKNTVYLQMNSLKPEDTAVYYCAANPTYGSDWNAENWGQGTQVTVSSGSGGGGSGGGGSGGGGSFEQVQLQQPGAELVKPGASVKMSCKASGYAFSSYWINWMKQKPGQGLEWIGQIYPGDGDTNYNGKFKGRATLTADTSSSTAYMQLSSLTSEDSAVYFCARSITTVVGCAMDYWGQGTSVTVSSTRASTKGPSVFPLAPSSKSTSGGTAALGCLVKDYFPEPVTVSWNSGALTSGVHTFPAVLQSSGLYSLSSVVTVPSSSLGTQTYICNVNHKPSNTKVDKRVEPKSCIPEDTFFPSPESSCDVKLVEKSFETDTNLNFQNLSVIGFRILLLKVAGFNLLMTLRLWSSRAKRSGSGVKQTLNFDLLKLAGDVESNPGPSRGHMTEYKPTVRLATRDDVPRAVRTLAAAFADYPATRHTVDPDRHIERVTELQELFLTRVGLDIGKVWVADDGAAVAVWTTPESVEAGAVFAEIGPRMAELSGSRLAAQQQMEGLLAPHRPKEPAWFLATVGVSPDHQGKGLGSAVVLPGVEAAERAGVPAFLETSAPRNLPFYERLGFTVTADVEVPEGPRTWCMTRKPGA
For the molecule B1, the “NFAT-GFP ASSAY: Raji-CD19-KO” value in the experiment with RAJI-CD19-KO cells is 4+ (refer to approximately 5%, 10%, 20%, 30%, 40% and 50% GFP positive cells). Moreover, in the experiment with RS;411, the “NFAT-GFP ASSAY: RS411” value is 4+ (refer to approximately 5%, 10%, 20%, 30%, 40% and 50% GFP positive cells). Also, in the experiment with L363 cells, the “NFAT-GFP ASSAY: L363” value is 2+ (refer to approximately 5%, 10%, 20%, 30%, 40% and 50% GFP positive cells). The “NFAT-GFP ASSAY: Raji” value in the experiment on RAJI cells was 5+ (refer to approximately 5%, 10%, 20%, 30%, 40% and 50% GFP positive cells). Further, in the experiment with Nalm6 cells, the “NFAT-GFP ASSAY: Nalm6” value is 5+ (refer to approximately 5%, 10%, 20%, 30%, 40% and 50% GFP positive cells).

B2: SEQ ID NO: 22289: NKG2D-YA fused directly to TCRb constant chain without an Ig linker (protein)
chain: MALPVTALLLPLALLLHAARPACLFNQEVQIPLTESYCGPCPKNWICYKNNCYQFFDESKNWYESQASCMSQNASLLKVYSKEDQDLLKLVKSAHWMGLVHIPTNGSWQWEDGSILSPNLLTIIEMQKGDCALYASSFKGYIENCSTPNTYICMQRTVLEDLKNVFPPEVAVFEPSEAEISHTQKATLVCLATGFYPDHVELSWWVNGKEVHSGVCTDPQPLKEQPALNDSRYCLSSRLRVSATFWQNPRNHFRCQVQFYGLSENDEWTQDRAKPVTQIVSAEAWGRADCGFTSESYQQGVLSATILYEILLGKATLYAVLVSALVLMAMVKRKDSRGRAKRSGSGATNFSLLKQAGDVEENPGPTSMDWIWRILFLVGAATGAHSFEDLFNQEVQIPLTESYCGPCPKNWICYKNNCYQFFDESKNWYESQASCMSQNASLLKVYSKEDQDLLKLVKSAHWMGLVHIPTNGSWQWEDGSILSPNLLTIIEMQKGDCALYASSFKGFIENCSTPNTYICMQRTVTRIQNPDPAVYQLRDSKSSDKSVCLFTDFDSQTNVSQSKDSDVYITDKCVLDMRSMDFKSNSAVAWSNKSDFACANAFNNSIIPEDTFFPSPESSCDVKLVEKSFETDTNLNFQNLSVIGFRILLLKVAGFNLLMTLRLWSSRAKRSGSGVKQTLNFDLLKLAGDVESNPGPSRGHMTEYKPTVRLATRDDVPRAVRTLAAAFADYPATRHTVDPDRHIERVTELQELFLTRVGLDIGKVWVADDGAAVAVWTTPESVEAGAVFAEIGPRMAELSGSRLAAQQQMEGLLAPHRPKEPAWFLATVGVSPDHQGKGLGSAVVLPGVEAAERAGVPAFLETSAPRNLPFYERLGFTVTADVEVPEGPRTWCMTRKPGA
Regarding B2, the GFP induction result in the experiment on LNCaP cells (LNCaP cells, only in the presence of SAR-adaptor PSMA-USC76-chVH-G4S-ULBP2-S3 (SEQ ID NO: 23114)) is “failed to show GFP induction”.

B3: 22044 (protein)
chain: MALPVTALLLPLALLLHAARPQLQLQESGPGLVKPSETLSLTCTVSGDSISSGDYYWGWIRQPPGKGLEWIGHIYYSGVTYYNPSLKSRVTISVDTSRNQFSLKLSSVTAADTAVYYCTREDSSNWRSRGQGTLVTVSSLEGSMDPKDNCSKDANDTLLLQLTNTSAYYMYLLLLLKSVVYFAIITCCLLRRTAFCCNGEKSRAKRSGSGATNFSLLKQAGDVEENPGPTSMDWIWRILFLVGAATGAHSFEVQLVESGGGVVQPGRSLRLSCAASGFSFSGYGMHWVRQAPGKGLEWVAYISYDGSNKYYADSVKGRFTISRDNSKNTLYLQMNSLRAEDTAVYYCAKDPAWGLRLGESSSYDFDIWGQGTMVTVSSTRDKTHTCPPCPAIPEDTFFPSPESSCDVKLVEKSFETDTNLNFQNLSVIGFRILLLKVAGFNLLMTLRLWSSRAKRSGSGVKQTLNFDLLKLAGDVESNPGPSRGHMTEYKPTVRLATRDDVPRAVRTLAAAFADYPATRHTVDPDRHIERVTELQELFLTRVGLDIGKVWVADDGAAVAVWTTPESVEAGAVFAEIGPRMAELSGSRLAAQQQMEGLLAPHRPKEPAWFLATVGVSPDHQGKGLGSAVVLPGVEAAERAGVPAFLETSAPRNLPFYERLGFTVTADVEVPEGPRTWCMTRKPGA
Turning to B3, in the experiment with LNCaP cells, the “NFAT-GFP ASSAY: LNCaP” value was “+/- (refer to approximately 5%, 10%, 20%, 30%, 40% and 50% GFP positive cells)”.

B4: 22042 (protein)
chain: MALPVTALLLPLALLLHAARPQLQLQESGPGLVKPSETLSLTCTVSGDSISSGDYYWGWIRQPPGKGLEWIGHIYYSGVTYYNPSLKSRVTISVDTSRNQFSLKLSSVTAADTAVYYCTREDSSNWRSRGQGTLVTVSSLEGSADCGFTSESYQQGVLSATILYEILLGKATLYAVLVSALVLMAMVKRKDSRGRAKRSGSGATNFSLLKQAGDVEENPGPTSMDWIWRILFLVGAATGAHSFEVQLVESGGGVVQPGRSLRLSCAASGFSFSGYGMHWVRQAPGKGLEWVAYISYDGSNKYYADSVKGRFTISRDNSKNTLYLQMNSLRAEDTAVYYCAKDPAWGLRLGESSSYDFDIWGQGTMVTVSSTRDKTHTCPPCPAIPEDTFFPSPESSCDVKLVEKSFETDTNLNFQNLSVIGFRILLLKVAGFNLLMTLRLWSSRAKRSGSGVKQTLNFDLLKLAGDVESNPGPSRGHMTEYKPTVRLATRDDVPRAVRTLAAAFADYPATRHTVDPDRHIERVTELQELFLTRVGLDIGKVWVADDGAAVAVWTTPESVEAGAVFAEIGPRMAELSGSRLAAQQQMEGLLAPHRPKEPAWFLATVGVSPDHQGKGLGSAVVLPGVEAAERAGVPAFLETSAPRNLPFYERLGFTVTADVEVPEGPRTWCMTRKPGA
As for B4, the “NFAT-GFP ASSAY: LNCaP” value in the experiment with LNCaP cells is “+/- (refer to approximately 5%, 10%, 20%, 30%, 40% and 50% GFP positive cells)”.
